Test: label from the status in PepcDB records
In the case of “MTLPPYHTPLPAETLRALSIPAPWTFGLADRVRFGELDAIGHVNHTAYLRWYESFRLPFLKARHVTDYGPTSPRLVLKQVHCTYLAEMGMGEDYVITGRVSNFRTTSFTMEFACWRLGDAVECTSEGSAVVVLLNRDGSGRYPIPEAGRASFVTEDGVLAAG”, the protein production was “not failed”. With “MTLPRLILPLLIAAACALGGCAYNPDLGRDQLLIVNDNNLARDGEKAWADALRTSHVSKEPRKNARVQAVGQRVIVAAGLAGRPWEYAVFLEEAPNAFVLPGGYVGVTVGLLSLVENDDQLAAVIGHEAGHVVARHAAERVSQETTSKVLLGIAKAAAGGTEFGKLLKDHGEDATRYGLLLPFSRKQELEADKLGVDFMQRAGYRPREAVKLWRNMQALDGGKSGGDLGSTHPSDAVRIQELERYLASKGWLEHHHHHH” the protein production was “failed”. With “MTLPRRSGIRALPARGPTMESILGSFLLVAASEMGDKTQLLAFSLATRFRKPWPIMAGILVATLANHGLASSLGAWISANVPARMLAGVLALTFLMFGLWTLRPDSLEASKGPERFGAFLTTTVLFFLAEMGDKTQLATVALAARYGDVIRVTAGTTLGMLAADGLAVFLGEKLAARVSSARIRWAAAGLFFLFGLISAWAAIFG” the protein production was “failed”. For “MTLPSTPMPPAGSRKILLDDFQHVGSESHLGQCVNRSWTRHNCGHLENASIICTSEGMALSPHLDGNRQPSNLDNLREKAFLYQRHQHLLKFHHQLPAAGACMEVRLLNGTGRCLGRVEVLIQGTWGTVCDHFWNLAEAAVVCRQLQCGQAMAAHFGASSGKVLLDDMQCVGSKSHLGRCVHRGWARHNCGHLEDASVICAGEGLVVNLHLEGCF”, the protein production was “failed”. In the case of “MTLQETLNSEYQISFEEAQATAKIVDDLAEAEQKLKNLERQIKALGPINLDAIAQFDEVNERFTFLSSQKDDLLEAKNLLLSTIDDMNDEVKIRFKTSFDAIRESFKTTFAQMFVSGLADLELTSDNLLEAGVEIKVQPPGKKLSSLNLMSGGEKALTALALIFAILRVRTVPFVVLDEVEAALDEANVKRFGDYMNHFDNSNQFIVVTHRRGTMAAAGSMYGVTMADAGVSKMISVKLDSAIN”, the protein production was “failed”. In the case of “MTLSGGGSASDMSGQTVLTAEDVDIDVVGEGDDGLEEKDSDAGCDSPAGPPELRLDEADEVPPAAPHHGQPQPPHQQPLTLPKEAAGAGAGPGGDVGAPEADGCKGGVGGEEGGASGGGPGAGSGSAGGLAPSKPKNSLVKPPYSYIALITMAILQSPQKKLTLSGICEFISNRFPYYREKFPAWQNSIRHNLSLNDCFVKIPREPGNPGKGNYWTLDPQSEDMFDNGSFLRRRKRFKRHQQEHLREQTALMMQSFGAYSLAAAAGAAGPYGRPYGLHPAAAAGAYSHPAAAAAAAAAAALQYPYALPPVAPVLPPAVPLLPSGELGRKAAAFGSQLGPGLQLQLNSLGAAAAAAGTAGAAGTTASLIKSEPSARPSFSIENIIGGGPAAPGGSAVGAGVAGGTGGSGGGSTAQSFLRPPGTVQSAALMATHQPLSLSRTTATIAPILSVPLSGQFLQPAASAAAAAAAAAQAKWPAQ”, the protein production was “failed”. In the case of “MTLTALFAAFCGLYLLIGGAWLVVLGGSWYYPIAGLVMLGVTVMLFRGKRAALWLYAALLLATMIWGVWEVGFDFWALTPRSDILVFFGIWLILPFVWRRLPVPSAGAVGALVVALLISGGMLTWAGFNDPQEVNGTLSADATPAAPISTVADGDWPAYGRNQEGQRFSPLKQINADNVKNLKEAWVFRTGDLKQPNDPGEITNEVTPIKVGDTLFLCTAHQRLFALDAATGKEKWHFDPQLNADPSFQHVTCRGVSYHEAKADNAPADVVADCPRRIILPVNDGRLFAVNADNGKLCETFANKGILNLQTNMPVTTPGMYEPTSPPIITDKTIVIAGAVTDNFSTREPSGVIRGFDVNTGKLLWAFDPGAKDPNAIPSDEHHFTLNSPNSWAPAAYDAKLDLVYLPMGVTTPDIWGGNRTPEQERYASSIVALNATTGKLAWSYQTVHHDLWDMDMPSQPTLADIEVNGKTVPVIYAPAKTGNIFVLDRRNGELVVPAPEKPVPQGAAKGDYVTKTQPFSDLSFRPKKDLTGADMWGATMFDQLVCRVIFHQLRYEGIFTPPSEQGTLVFPGNLGMFEWGGISVDPNRQVAIANPMALPFVSKLIPRGPGNPMEPPKDAKGSGTESGVQPQYGVPYGVTLNPFLSPFGLPCKQPAWGYISALDLKTNEVVWKKRIGTPQDSLPFPMPVKLPFTMGMPMLGGPISTAGNVLFIGATADNYLRAYNMSNGEKLWEARLPAGGQATPMTYEVNGKQYVVISAGGHGSFGTKMGDYIVAYALPDDAK”, the protein production was “failed”. In the case of “MTLTPQELQTYLAALVRQNLQIATMIWGPPGVGKSSVVAQVARQHDLDFVDVRLSQLAPTDLRGLPVPEADAQGSGVSRWYPPEFLPRAGAGILFLDEVNMAPPTMQGMAQQLILDRRVGSYELPDGWFVWAAGNRKEDRASVFDMPAPLANRFLHLTVRPDFDSWRSYALAKGLHEHVIAFLTFRPELLWRLDPQQPAWPSPRSWEMAAQLHRAGLDASSAIGEAAGAEFAAFVRLFEQLPDLGTVLSGAGAGLKLPDEPSVRYAAVVGLAARAADAEEAYRAFTWLADSAGPEWLQLYVATLVSKFQALGQLGELAGLLGRDPRLAELVQGALSLAEGLEHHHHHH”, the protein production was “failed”. With “MTLTSSQKPFRLLVGDREVQESDLAALLQKHQLLPELVKRMRFAQVIEGIEVQPDVLEQECQAWCKQNGIAPQQLPQLLAQQQISLEQWMSSVENRLRLRLFQEREFSHRAENRFLKRKSQLDLVTYSLLRHSDGHLIQELYQQLLHGEATFEDLATQFSQGHEAKTAGKLGPVPLSQPHPALAEVLRTAQPGQILPPRNLESYWLIIRLDQLQPVAFNETIRRQMLQELFDEWLGAEVQQTLNTL” the protein production was “failed”. For “MTMLQIVGALILLIAGFAILRLLFRALTSTASALAGFILLCLFGPALLAGYITERITRLFHIRWLAGVFLTIAGMIISFMWGLDGKHIALEAHTFDSVKFILTTALAAGLLALPVQIRTIQQNGLTPEDISKEINGYYCCFYTAFFLMACSAYAPLIALQFDISPSLMWWGGLLYWLAALVTLLWAASQIQALKRLTSAISQTLEEQPVLNSKSWLSSLQNDYSLPETLTERIWLTLISQRISRGELREFELADGNWLLDNAWYERNMAGFNEKLRESLSFTPDELKTLFRNRLNLSPEANDDFLDRCLDGGDWYPFSEGRRFVSFHHVDELRICASCGLTEVHHAPENHKPDPEWYCSSLCRETETLCQDIYERSHTGFISDATANGLILMKLPETWSTNEKMFASGGQGHGFAAERGNHIVDRVRLKNARILGDNNARNGADRLVSGTEIQTKYCSTAVRSVGAAFDGQNGQYRYMGNHGPMQLEVPRDQYAGAVETMKNKIREGKVPGVTDPAEASRLIRRGHLTYTQARNITRFGTIESVTYDIAEGSVVSLAAGGISFALTTSVFWLSTGDRDAALQTAAVQAGKTFTRTLAVYVTTQQLHRLSVVQGMLKHIDFSTASPTVRQALQKGTGAGNISALNKVMKGTLVTSLALVAVTTGPDMIKMLRGRISGAQFIRNLAVASSGVAGGAVGSVAGGILFSPLGPFGALTGRVVGGVLGGMIASAVSGKIAGALVEEDRVKILAMIQEQVTWLAGSFLLTGHEIENLNANLARVIDQNALEIIFAAGIQQRAATNMLIKPLVVSIIRQRPVMEYDASHLGNMVNRLEETLPPELPA”, the protein production was “failed”. For “MTMTHLNRLILISLLFVSLLLKSSTASSTVVDEGNRTSRNFRYRTHRFVPRFNHHPYHVTPHRSCDSFIRPYARSMCIELQRIHRSSRKQPLLSPPPPEIDPRYGVDKRLVPSGPNPLHN”, the protein production was “failed”. In the case of “MTMTRERLYLFDTTLRDGQQTPGIDFSVEDKIAIAKLLDEFGMDYVEGGYPGANPTDTAFFQQKRTASAKFVAFGMTKRAGVSASNDPGLAALVQSKSDAICFVAKSWDYHVRVALGCTNEENLESIKTSVETAVASGKEAMVDCEHFFDGFKANPDYALACAKTAYDAGARWVVLCDTNGGTQPSEVRTIVAKVIASSIPGDHLGIHAHDDTGQAVANSLAAVEAGVRQIQGTLNGIGERCGNANLISIVPTLALKPAFADRFVSGISAEALTGISRLSRAFDELLNRAPEAQAPYVGASAFATKAGIHASALAKEPATYEHVPPESVGNRRRVMVSDQGGKANFLAELKRRGIEVPRDDHRLDALISVVKEREAEGYAYEGADASFELLARKMLHGLPEFFNVTSFRCMVERRFDANGNLKTVSEAIVKVEVDGEEKMSVAEGHGPVNALDIALRKDLGKYQSEIVDLELADFKVRILNGGTEAITRVLIESHDGTGARWWTVGVSENIIDASFQALMDSIIYKLMKNREMAGLVAAE”, the protein production was “failed”. For “MTNDKPFVDLRQYDQSWFDRGRSAWYILLWWLVQAIAFPLTPHFSSNIRCWILRLFGARIGKGVVVRPTARFTFPWKVTIGDYSWVGDDVVFYSLDEIHIGQHCVISQKSYLCTGSHDIQDPTFRLKVAGITIGNGAWVATDCFIAPGVQIGANAVIGARSSVFTSMPTGQVCWGSPCRPQHPRLKE”, the protein production was “failed”. With “MTNFKDNDGDGTKLHVVMFPWLAFGHMVPYLELSKLIAQKGHKVSFISTPRNIDRLLPWLPENLSSVINFVKLSLPVGDNKLPEDGEATTDVPFELIPYLKIAYDGLKVPVTEFLESSKPDWVLQDFAGFWLPPISRRLGIKTGFFSAFNGATLGILKPPGFEEYRTSPADFMKPPKWVPFETSVAFKLFECRFIFKGFMAETTEGNVPDIHRVGGVIDGCDVIFVRSCYEYEAEWLGLTQELHRKPVIPVGVLPPKPDEKFEDTDTWLSVKKWLDSRKSKSIVYVAFGSEAKPSQTELNEIALGLELSGLPFFWVLKTRRGPWDTEPVELPEGFEERTADRGMVWRGWVEQLRTLSHDSIGLVLTHPGWGTIIEAIRFAKPMAMLVFVYDQGLNARVIEEKKIGYMIPRDETEGFFTKESVANSLRLVMVEEEGKVYRENVKEMKGVFGDMDRQDRYVDSFLEYLVTNR” the protein production was “failed”. For “MTNHEQVLTDYLAAFIEELVQAGVKEAIISPGSRSTPLALMMAEHPTLKIYVDVDERSAGFFALGLAKASKRPVVLLCTSGTAAANYFPAVVEANLSQIPLIVLTADRPHELRNVGAPQAMDQLHLYGSHVKDFTDMALPENSDEMLRYAKWHSSRAVDIAMKTPRGPVHLNFPLREPLVPILEPSPFTATGKKHHHVH”, the protein production was “failed”. With “MTNIFASWGLIKLEIVRALRNRKFLFFSVIYPSALFLLIAGSADSTTKVEGTGLSLPTFFMVSMASFGALTAVLMGNSERIAKERESGWVRQLRLTTLPGRGYVLAKTASAAVISLPSILIVFVVAAAVKNVRLDAWQWLALTGTIWVGSLVFAALGVAIGYLATGDAVRPITMIVYFGLSMLGGLWMPTTTFPDWLQSIAKWLPTHAYAALGQAIELGNAPQAKDIAILAVSFVLFAGGAAWLYRKDTLKA” the protein production was “failed”. In the case of “MTNILILMEREIIKILSVVEFHPLILAFHLGLMLAGVSLLSYSLFLILVKKVDIMLPLVISFMAYLTSLILLILILLLETYRFLIFDGRILVKNSLLTRNEFKFSLRDKNLIIGFYDKASLGKFAIIYGDRLLFKFLTQQKNIRLIKNFVVKSGYRLGGTYKICRVCGSINEENAEYCDFCGSREVSPYDLYWID”, the protein production was “failed”. With “MTNITASIVLYNNPIDQIRQCIESMQADTRVHVLLVDNSEKKGGYTGLAADNVEILDAPGNVGFGRGHNLVLGRLAALRSEVHLVVNPDIVVSAGCVQAVADVLRQRKDVTLVGPRVVSPDGALYRSCKLLPTPWNLFARRFAPRQLYAAADARYELEAFGYDRELRLHNLSGAFLAFRSEAFTALGGFDPRYFMYLEDVDICRRAAGLGAVIFLPQAEVVHEHGKGSYRSWRLLREHMRSAILYFNRFGWFVDAERRLLNRETLARVNDMRSVVLEHHHHHH” the protein production was “failed”. In the case of “MTNLELSGSQSYLNDESTANLSSLAGKFLVQFWGVRGLIPTPSSNTSRYGGNTACVEMQVAGKRLIFDGGTGLRILGKAWQHLQQPLEAHLFFTNSQSNRIQGFPFFAPAFIAGNCFHIYGGAASNGASIKQCLCDQMLQPHFPYPLQVMQSELQFYPLTPDSEVKLDDVTIRTALINQTQRSIGYRVTWQEYSVAYVTDLNMSAEQGEREQVLQIIQDVDLLIANATYTPPTSHDHESVDLLWQAAVEMAQKAGVRKLIISHHHPDDHDDFLDQVEKEVQSTFSDALLACEGLALPVFLEHHHHHH”, the protein production was “not failed”.
